# Target: T1, CNOT1 (UniProt A5YKK6 1-2376)
# T1 construct: CNOT1, scaffold subunit of the CCR4-NOT deadenylase complex; Endogenous human CNOT1 of the SK-N-SH cells is precipitated by the anti-CNOT1 antibody as well; source: SK-N-SH, transfected (CNOT1 plasmid), in lysate
# Assay: co-IP; anti-CNOT1 antibody or control IgG, protein A/G magnetic beads; lysates of SK-N-SH cells 48 h after co-transfection with CNOT1 and either empty or AUF1-expressing plasmid; PLB lysis buffer (10 mM HEPES pH 7.0, 100 mM KCl, 5 mM MgCl2, 0.5% NP-40); washes in NT2 buffer with 250 mM NaCl; Western blot
# Details: partners not purified
# T1 sequence (A5YKK6 whole entry): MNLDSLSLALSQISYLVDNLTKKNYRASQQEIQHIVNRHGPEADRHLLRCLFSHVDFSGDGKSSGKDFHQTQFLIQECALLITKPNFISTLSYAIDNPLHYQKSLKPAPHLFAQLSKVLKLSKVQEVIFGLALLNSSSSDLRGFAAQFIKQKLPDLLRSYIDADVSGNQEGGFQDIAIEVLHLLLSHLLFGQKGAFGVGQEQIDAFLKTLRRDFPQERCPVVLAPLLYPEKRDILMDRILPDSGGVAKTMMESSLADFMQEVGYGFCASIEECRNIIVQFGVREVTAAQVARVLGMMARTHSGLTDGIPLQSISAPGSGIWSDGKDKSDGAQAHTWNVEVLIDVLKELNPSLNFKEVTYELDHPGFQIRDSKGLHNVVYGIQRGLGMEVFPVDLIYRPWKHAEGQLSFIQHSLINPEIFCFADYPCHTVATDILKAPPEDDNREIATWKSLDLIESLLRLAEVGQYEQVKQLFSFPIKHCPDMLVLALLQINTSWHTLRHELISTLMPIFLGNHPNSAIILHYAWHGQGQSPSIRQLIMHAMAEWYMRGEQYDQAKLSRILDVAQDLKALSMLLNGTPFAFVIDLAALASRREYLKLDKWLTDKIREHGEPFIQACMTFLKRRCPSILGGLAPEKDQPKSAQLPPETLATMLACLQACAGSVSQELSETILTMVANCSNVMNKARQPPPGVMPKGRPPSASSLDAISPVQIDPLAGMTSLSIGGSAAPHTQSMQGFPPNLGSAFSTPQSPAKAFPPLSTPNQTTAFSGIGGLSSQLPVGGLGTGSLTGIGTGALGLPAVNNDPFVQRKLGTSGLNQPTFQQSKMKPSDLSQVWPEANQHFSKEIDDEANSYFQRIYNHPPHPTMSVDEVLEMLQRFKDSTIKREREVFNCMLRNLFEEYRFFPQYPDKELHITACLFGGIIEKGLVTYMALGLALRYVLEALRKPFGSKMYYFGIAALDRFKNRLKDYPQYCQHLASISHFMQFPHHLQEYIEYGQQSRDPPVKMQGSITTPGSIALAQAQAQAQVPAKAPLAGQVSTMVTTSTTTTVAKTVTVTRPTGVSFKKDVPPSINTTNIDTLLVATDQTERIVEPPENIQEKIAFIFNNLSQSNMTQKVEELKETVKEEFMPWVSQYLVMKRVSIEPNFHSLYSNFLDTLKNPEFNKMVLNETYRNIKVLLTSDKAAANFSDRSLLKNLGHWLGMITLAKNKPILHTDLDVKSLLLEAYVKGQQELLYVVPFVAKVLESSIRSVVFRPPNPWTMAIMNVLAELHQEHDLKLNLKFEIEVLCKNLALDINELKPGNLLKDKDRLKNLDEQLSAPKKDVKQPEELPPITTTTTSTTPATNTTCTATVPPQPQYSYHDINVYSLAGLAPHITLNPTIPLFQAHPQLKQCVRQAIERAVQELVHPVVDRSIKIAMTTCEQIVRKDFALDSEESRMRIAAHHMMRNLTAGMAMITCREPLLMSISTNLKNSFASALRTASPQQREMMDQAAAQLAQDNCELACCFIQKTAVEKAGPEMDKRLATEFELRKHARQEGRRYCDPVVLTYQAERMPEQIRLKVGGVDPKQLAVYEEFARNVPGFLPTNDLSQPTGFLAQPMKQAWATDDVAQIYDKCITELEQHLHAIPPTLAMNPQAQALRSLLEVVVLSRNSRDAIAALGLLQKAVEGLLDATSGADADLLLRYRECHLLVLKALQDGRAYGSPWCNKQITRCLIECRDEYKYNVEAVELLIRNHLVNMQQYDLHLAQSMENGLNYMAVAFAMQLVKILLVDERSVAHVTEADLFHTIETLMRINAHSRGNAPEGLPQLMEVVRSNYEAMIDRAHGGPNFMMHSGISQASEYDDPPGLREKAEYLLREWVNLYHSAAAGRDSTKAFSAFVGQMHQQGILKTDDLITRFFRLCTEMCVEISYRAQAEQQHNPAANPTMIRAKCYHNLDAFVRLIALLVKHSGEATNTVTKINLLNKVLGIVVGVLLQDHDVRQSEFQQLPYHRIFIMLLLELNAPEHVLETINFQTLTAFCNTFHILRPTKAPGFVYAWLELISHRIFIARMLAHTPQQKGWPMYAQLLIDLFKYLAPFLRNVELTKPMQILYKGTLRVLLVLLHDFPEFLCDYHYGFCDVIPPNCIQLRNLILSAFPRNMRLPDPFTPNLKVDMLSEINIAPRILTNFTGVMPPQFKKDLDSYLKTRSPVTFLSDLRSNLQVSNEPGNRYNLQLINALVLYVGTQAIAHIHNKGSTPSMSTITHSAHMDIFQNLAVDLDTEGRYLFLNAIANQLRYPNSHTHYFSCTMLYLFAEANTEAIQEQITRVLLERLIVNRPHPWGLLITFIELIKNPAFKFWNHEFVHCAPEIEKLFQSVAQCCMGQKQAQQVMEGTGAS
binder,measurement,value
"AUF1 (heterogeneous nuclear ribonucleoprotein D, HNRNPD), 42 kDa protein (natural protein, human, UniProt Q14103-2 1-336, looked up, human AUF1/HNRNPD CDS encoding the 42 kDa protein (p42 isoform), amplified from SK-N-SH cDNA and cloned between KpnI and NotI of pENTR-GD; The co-IP was done in cells transfected with empty or AUF1-expressing plasmid; the anti-AUF1 blot also detects the endogenous AUF1 isoforms (p37, p40, p42, p45) of SK-N-SH cells; also called p42; source: SK-N-SH, transfected (AUF1-expressing plasmid), in lysate) MSEEQFGGDGAAAAATAAVGGSAGEQEGAMVAATQGAAAAAGSGAGTGGGTASGGTEGGSAESEGAKIDASKNEEDEGKMFIGGLSWDTTKKDLKDYFSKFGEVVDCTLKLDPITGRSRGFGFVLFKESESVDKVMDQKEHKLNGKVIDPKRAKAMKTKEPVKKIFVGGLSPDTPEEKIREYFGGFGEVESIELPMDNKTNKRRGFCFITFKEEEPVKKIMEKKYHNVGLSKCEIKVAMSKEQYQQQQQWGSRGGFAGRARGRGGGPSQNWNQGYSNYWNQGYGNYGYNSQGYGGYGGYDYTGYNNYYGYGDYSNQQSGYGKVSRRGGHQNSYKPY",fold enrichment in the CNOT1 immunoprecipitate,1.6 fold

# Reference: article PMC10688287, “RNA binding protein AUF1/HNRNPD regulates nuclear export, stability and translation of SNCA transcripts” (Open Biology, 2023)
